Results reported in PMC7483736, “Catalytic specificity of the Lactobacillus plantarum cystathionine γ-lyase presumed by the crystallographic analysis” (Scientific Reports, 2020).

Columns and labels:
[1] = biological target: K194A mutant of L. plantarum CGL (cystathionine γ-lyase from Lactobacillus plantarum SN35N) (Lactobacillus plantarum SN35N); experiment: crystal structure; K194A CGL at 9 mg/mL with PLP and 2 mM cystathionine or 2 mM L-serine; sitting-drop vapor diffusion, precipitant 0.4 M KH2PO4 and 0.4 M Na2HPO4; tetramer seen in the crystal
L. plantarum CGL [2] = biological target: T1, L. plantarum CGL (Lactiplantibacillus plantarum, UniProt F9UT53, K194A); experiment: X-ray crystal structure, […] Å; type: binding; details: covalent; external aldimine with PLP, substrate analogue, phosphate at distal carboxyl site
T1 construct: gene cblB; C-terminal His6 tag (kept), pET-21a(+), E. coli BL21(DE3); homotetramer, active site between two subunits; PCR primers (translated) give N-terminus MRTLTMKFETQ and C-terminus FASIQAD before LE-His6
T1 sequence (F9UT53 entry or part of it K194A): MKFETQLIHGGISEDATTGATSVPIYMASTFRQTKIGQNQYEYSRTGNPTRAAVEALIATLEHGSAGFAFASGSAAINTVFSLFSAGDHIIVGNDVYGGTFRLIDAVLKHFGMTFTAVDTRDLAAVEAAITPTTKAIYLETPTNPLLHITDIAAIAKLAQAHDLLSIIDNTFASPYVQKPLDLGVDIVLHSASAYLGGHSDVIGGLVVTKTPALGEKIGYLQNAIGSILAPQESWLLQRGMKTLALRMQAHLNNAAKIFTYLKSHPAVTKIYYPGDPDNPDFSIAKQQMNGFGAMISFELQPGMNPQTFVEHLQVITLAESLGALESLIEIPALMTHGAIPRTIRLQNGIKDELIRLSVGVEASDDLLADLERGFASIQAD

L. plantarum CGL [3] = biological target: T1, L. plantarum CGL; experiment: X-ray crystal structure, […] Å; type: binding; details: covalent; external aldimine with PLP at active site, inactive mutant
DTNB thiol release, A412 = substrate: N[C@@H](CCSC[C@H](N)C(=O)O)C(=O)O; experiment: DTNB thiol release, A412; type: biochemical, Lactiplantibacillus plantarum; details: cystathionase, 100 mM HEPES-KOH pH 7.5, 0.5 mM DTNB, 37 °C
From the text: DTNB thiol release, A412 on L. plantarum CGL

H2S release as PbS, A390 [4] = substrate: N[C@@H](CCS)C(=O)O; experiment: H2S release as PbS, A390; type: biochemical, Lactiplantibacillus plantarum; details: L-homocysteine gamma-lyase
From the text: (§1) H2S release as PbS, A390 on L. plantarum CGL

H2S release as PbS, A390 [5] = substrate: N[C@@H](CS)C(=O)O; experiment: H2S release as PbS, A390; type: biochemical, Lactiplantibacillus plantarum; details: L-cysteine beta-lyase, 100 mM HEPES-KOH pH 7.5, 5 mM TCEP, 0.4 mM lead(II) nitrate, 37 °C
From the text: as §1

[6] = substrate: N[C@@H](CSSC[C@H](N)C(=O)O)C(=O)O; experiment: lactate dehydrogenase-coupled pyruvate formation, NADH A340; type: biochemical, Lactiplantibacillus plantarum; details: L-cystine beta-lyase, 100 mM HEPES-KOH pH 7.5, 0.2 mM NADH, 37 °C
From the text: lactate dehydrogenase-coupled pyruvate formation, NADH A340 on L. plantarum CGL

[7] = 100 mM HEPES-KOH pH 7.5, 5 mM TCEP, 0.4 mM lead(II) nitrate, 37 °C
[8] = buffer same, fitted with substrate inhibition, called inaccurate by authors

**Q.** “K194A mutant of L. plantarum CGL (cystathionine γ-lyase from Lactobacillus plantarum SN35N) (enzyme)” was tested. Which stoichiometry N [1] did it give?
**A.** 4

**Q.** `N[C@@H](CO)C(=O)O` [L-serine] was tested. Which “X-ray crystal structure, 2.75 Å” value (L. plantarum CGL [2]) did it give?
**A.** L-serine was also found as part of the external aldimine formed with PLP

**Q.** For `N[C@@H](CCSC[C@H](N)C(=O)O)C(=O)O` [cystathionine], which “X-ray crystal structure, 3.10 Å” value (L. plantarum CGL [3]) is on record?
**A.** Cystathionine was found in the crystal structure as a part of the external aldimine

B1: L. plantarum CGL (Lactiplantibacillus plantarum WCFS1) (protein)
chain: MKFETQLIHGGISEDATTGATSVPIYMASTFRQTKIGQNQYEYSRTGNPTRAAVEALIATLEHGSAGFAFASGSAAINTVFSLFSAGDHIIVGNDVYGGTFRLIDAVLKHFGMTFTAVDTRDLAAVEAAITPTTKAIYLETPTNPLLHITDIAAIAKLAQAHDLLSIIDNTFASPYVQKPLDLGVDIVLHSASKYLGGHSDVIGGLVVTKTPALGEKIGYLQNAIGSILAPQESWLLQRGMKTLALRMQAHLNNAAKIFTYLKSHPAVTKIYYPGDPDNPDFSIAKQQMNGFGAMISFELQPGMNPQTFVEHLQVITLAESLGALESLIEIPALMTHGAIPRTIRLQNGIKDELIRLSVGVEASDDLLADLERGFASIQAD
notes: C-terminal His6 tag (kept), pET-21a(+), E. coli BL21(DE3); homotetramer, active site between two subunits; PCR primers (translated) give N-terminus … and C-terminus FASIQAD before LE-His6
**Q.** Which Km (DTNB thiol release, A412) does the source give for B1 here?
**A.** 0.45 ± 0.01 mM

**Q.** What about the kcat (DTNB thiol release, A412) of the same molecule?
**A.** 0.49 ± 0.01 s⁻¹

**Q.** And the kcat/Km (DTNB thiol release, A412)?
**A.** 1100 ± 100 M⁻¹ s⁻¹

**Q.** What about the Km (H2S release as PbS, A390 [4]; [7]) of the same molecule?
**A.** 6.3 ± 0.7 mM

**Q.** And the kcat (H2S release as PbS, A390 [4]; [7])?
**A.** 0.081 ± 0.004 s⁻¹

**Q.** What about the kcat/Km (H2S release as PbS, A390 [4]; [7]) of the same molecule?
**A.** 13 ± 1 M⁻¹ s⁻¹

**Q.** And the Km (H2S release as PbS, A390 [5])?
**A.** 35 ± 6 mM

**Q.** What about the kcat (H2S release as PbS, A390 [5]) of the same molecule?
**A.** 0.3 ± 0.03 s⁻¹

**Q.** What about the kcat/Km (H2S release as PbS, A390 [5]) of the same molecule?
**A.** 8.6 ± 1.8 M⁻¹ s⁻¹

**Q.** And the Km [6]?
**A.** 0.12 ± 0.01 mM

**Q.** What about the kcat [6] of the same molecule?
**A.** 0.12 ± 0.01 s⁻¹

**Q.** And the kcat/Km [6]?
**A.** 1000 ± 100 M⁻¹ s⁻¹

B2: L. plantarum CGL (Lactiplantibacillus plantarum WCFS1; Y97F) (protein)
chain: MKFETQLIHGGISEDATTGATSVPIYMASTFRQTKIGQNQYEYSRTGNPTRAAVEALIATLEHGSAGFAFASGSAAINTVFSLFSAGDHIIVGNDVFGGTFRLIDAVLKHFGMTFTAVDTRDLAAVEAAITPTTKAIYLETPTNPLLHITDIAAIAKLAQAHDLLSIIDNTFASPYVQKPLDLGVDIVLHSASKYLGGHSDVIGGLVVTKTPALGEKIGYLQNAIGSILAPQESWLLQRGMKTLALRMQAHLNNAAKIFTYLKSHPAVTKIYYPGDPDNPDFSIAKQQMNGFGAMISFELQPGMNPQTFVEHLQVITLAESLGALESLIEIPALMTHGAIPRTIRLQNGIKDELIRLSVGVEASDDLLADLERGFASIQAD
notes: as for B1
**Q.** With B2 as the molecule, how does the Km (DTNB thiol release, A412) read?
**A.** 0.77 ± 0.21 mM

**Q.** And the kcat (DTNB thiol release, A412)?
**A.** 0.0056 ± 0.0007 s⁻¹

**Q.** And the kcat/Km (DTNB thiol release, A412)?
**A.** 7.2 ± 2.2 M⁻¹ s⁻¹

**Q.** And the Km (H2S release as PbS, A390 [4]; [8])?
**A.** 1.2 ± 0.8 mM

**Q.** And the kcat (H2S release as PbS, A390 [4]; [8])?
**A.** 0.042 ± 0.02 s⁻¹

**Q.** And the kcat/Km (H2S release as PbS, A390 [4]; [8])?
**A.** 35 ± 27 M⁻¹ s⁻¹

**Q.** What about the Km (H2S release as PbS, A390 [5]; pH 7.5) of the same molecule?
**A.** 0.16 ± 0.03 mM

**Q.** What about the kcat (H2S release as PbS, A390 [5]; pH 7.5) of the same molecule?
**A.** 0.015 ± 0.001 s⁻¹

**Q.** What about the kcat/Km (H2S release as PbS, A390 [5]; pH 7.5) of the same molecule?
**A.** 96 ± 18 M⁻¹ s⁻¹

**Q.** And the Km [6]?
**A.** 0.056 ± 0.009 mM

**Q.** And the kcat [6]?
**A.** 0.1 ± 0.01 s⁻¹

**Q.** And the kcat/Km [6]?
**A.** 1800 ± 300 M⁻¹ s⁻¹
